Earlier results as cited in patent publication US10464968B2, “Method for producing a composition for treating a tooth lesion” (CREDENTIS AG, priority 2012, dated 2019).
Where two headings read alike, the source gives them in different places. No end group written: not given here.

## QQRFEWEFEQQ [Example P11-4, self-assembling peptide of 11 amino acids]
Above pH 7.5
  phase state of aqueous solution: isotropic fluid
Below pH 3
  phase state of aqueous solution: nematic gel
Between about pH 5 and about pH 3
  phase state of aqueous solution: flocculate
Between about pH 7.5 and about pH 5
  phase state of aqueous solution: nematic fluid
